From patent US20050255559A1 (published 2005)

B1: human calcium sensitive potassium channel β3c subunit (other)
chain: MFPLLYELTAVSPSPFPQRTAFPASGKKRETDYSDGDPLDVHKRLPSSTGEDRAVMLGFAMMGFSVLMFFLLGTTILKPFMLSIQREESTCTAIHTDIMDDWLDCAFTCGVHCHGQGKYPCLQVFVNLSHPGQKALLHYNEEAVQINPKCFYTPKCHQDRSDLLNSALDIKEFFDHKNGTPFSCFYSPASQSEDVILIKKYDQMAIFHCLFWPSLTLLGGALIVGMVRLTQHLSLLCEKYSTVVRDEVGGKVPYIEQHQFKLCIMRRSKGRAEKS
B2: human calcium sensitive potassium channel β2 subunit (other)
chain: MFIWTSGRTSSSYRHDEKRNIYQKIRDHDLLDKRKTVTALKAGEDRAILLGLAMMVCSIMMYFLLGITLLRSYMQSVWTEESQCTLLNASITETFNCSFSCGPDCWKLSQYPCLQVYVNLTSSGEKLLLYHTEETIKINQKCSYIPKCGKNFEESMSLVNVVMENFRKYQHFSCYSDPEGNQKSVILTKLYSSNVLFHSLFWPTCMMAGGVAIVAMVKLTQYLSLLCERIQRINR
B3: human calcium sensitive potassium channel β3a subunit (other)
chain: MQPFSIPVQITLQGSRRRQGRTAFPASGKKRETDYSDGDPLDVHKRLPSSTGEDRAVMLGFAMMGFSVLMFFLLGTTILKPFMLSIQREESTCTAIHTDIMDDWLDCAFTCGVHCHGQGKYPCLQVFVNLSHPGQKALLHYNEEAVQINPKCFYTPKCHQDRSDLLNSALDIKEFFDHKNGTPFSCFYSPASQSEDVILIKKYDQMAIFHCLFWPSLTLLGGALIVGMVRLTQHLSLLCEKYSTVVRDEVGGKVPYIEQHQFKLCIMRRSKGRAEKS

Each binder was assayed against human calcium sensitive potassium channel α subunit (human Slowpoke α) (human, UniProt Q12791 1-1236) (assay: cell-based or functional assay).
Sequence of human calcium sensitive potassium channel α subunit (human Slowpoke α) (Q12791 whole entry): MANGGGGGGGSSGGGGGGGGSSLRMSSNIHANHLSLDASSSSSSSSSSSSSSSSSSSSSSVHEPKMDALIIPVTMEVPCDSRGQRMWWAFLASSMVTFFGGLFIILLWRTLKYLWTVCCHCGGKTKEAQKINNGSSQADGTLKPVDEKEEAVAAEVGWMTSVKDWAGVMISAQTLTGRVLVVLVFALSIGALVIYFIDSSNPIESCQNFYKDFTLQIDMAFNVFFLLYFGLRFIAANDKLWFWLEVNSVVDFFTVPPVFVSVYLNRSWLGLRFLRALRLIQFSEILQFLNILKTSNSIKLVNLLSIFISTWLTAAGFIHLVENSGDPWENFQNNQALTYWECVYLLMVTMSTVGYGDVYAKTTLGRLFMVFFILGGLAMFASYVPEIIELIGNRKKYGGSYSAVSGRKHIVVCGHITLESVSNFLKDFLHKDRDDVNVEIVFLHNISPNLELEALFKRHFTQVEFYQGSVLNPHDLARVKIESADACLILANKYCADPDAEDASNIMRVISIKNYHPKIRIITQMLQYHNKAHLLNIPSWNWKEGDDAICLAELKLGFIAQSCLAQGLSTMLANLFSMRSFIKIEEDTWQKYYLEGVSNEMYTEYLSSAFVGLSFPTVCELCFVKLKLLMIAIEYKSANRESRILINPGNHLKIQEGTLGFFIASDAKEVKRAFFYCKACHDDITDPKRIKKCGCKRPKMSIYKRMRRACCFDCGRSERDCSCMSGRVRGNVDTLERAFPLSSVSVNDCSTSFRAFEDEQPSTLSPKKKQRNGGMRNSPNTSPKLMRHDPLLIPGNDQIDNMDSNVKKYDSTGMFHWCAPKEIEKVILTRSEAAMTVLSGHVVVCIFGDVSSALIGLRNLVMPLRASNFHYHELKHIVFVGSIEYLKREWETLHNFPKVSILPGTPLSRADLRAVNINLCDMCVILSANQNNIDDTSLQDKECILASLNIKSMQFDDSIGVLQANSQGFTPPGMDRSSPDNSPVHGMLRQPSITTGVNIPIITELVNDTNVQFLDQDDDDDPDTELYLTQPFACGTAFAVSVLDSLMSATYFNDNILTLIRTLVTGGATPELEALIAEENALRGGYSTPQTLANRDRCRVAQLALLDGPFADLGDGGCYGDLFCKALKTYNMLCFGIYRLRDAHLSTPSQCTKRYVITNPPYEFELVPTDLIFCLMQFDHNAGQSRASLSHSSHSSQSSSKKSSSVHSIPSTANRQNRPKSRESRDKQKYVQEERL

Compared with B1, B2 is lower in “V1/2 (half-maximal activation voltage, Boltzmann fit, inside-out patches, 30 µM Ca2+)” value: 20 mV for the first, -55 mV for the second.

B3 was tested, and the “V1/2 (half-maximal activation voltage, Boltzmann fit, inside-out patches, 30 µM Ca2+)” value was 45.4 mV.
